In this assay the target is CH848 10.17DT stabilized SOSIP gp140 Env trimer (HIV-1). As to the kind of experiment: SPR. (In general: SPR reads the build-up and loss of mass on a sensor chip optically.)

B1: DH270 UCA with the improbable G57R mutation (antibody, V domains shown)
VH: not shown
VL: QSALTQPASVSGSPGQSITISCTGTSSDVGSYNLVSWYQQHPGKAPKLMIYEVSKRPSGVSNRFSGSKSGNTASLTISGLQAEDEADYYCCSYAGSSTVIFGGGTKLTVL
On to B1, for which the equilibrium dissociation constant (Kd) (in general, the concentration at which binding is half-saturated) worked out at 132 nM.

B2: DH270 UCA (antibody, format not stated in the text) (antibody, V domains shown)
VH: not shown
VL: QSALTQPASVSGSPGQSITISCTGTSSDVGSYNLVSWYQQHPGKAPKLMIYEVSKRPSGVSNRFSGSKSGNTASLTISGLQAEDEADYYCCSYAGSSTVIFGGGTKLTVL
B2: the Kd turned out to be 558 nM.

These data come from paper PMC7168753 (Science (New York, N.Y.), 2019).
